Data published in US20240132619A1.

Experiments:
[1] = biological target: human serum albumin (HSA) (human) (UniProt P02768); assay: ELISA, HSA coated on plate, n = 3
[2] = biological target: mouse serum albumin (MSA) (mouse) (UniProt P07724); assay: ELISA, MSA coated on plate, n = 3
Sequence of UniProt P07724 (P07724 25-608 limits assumed): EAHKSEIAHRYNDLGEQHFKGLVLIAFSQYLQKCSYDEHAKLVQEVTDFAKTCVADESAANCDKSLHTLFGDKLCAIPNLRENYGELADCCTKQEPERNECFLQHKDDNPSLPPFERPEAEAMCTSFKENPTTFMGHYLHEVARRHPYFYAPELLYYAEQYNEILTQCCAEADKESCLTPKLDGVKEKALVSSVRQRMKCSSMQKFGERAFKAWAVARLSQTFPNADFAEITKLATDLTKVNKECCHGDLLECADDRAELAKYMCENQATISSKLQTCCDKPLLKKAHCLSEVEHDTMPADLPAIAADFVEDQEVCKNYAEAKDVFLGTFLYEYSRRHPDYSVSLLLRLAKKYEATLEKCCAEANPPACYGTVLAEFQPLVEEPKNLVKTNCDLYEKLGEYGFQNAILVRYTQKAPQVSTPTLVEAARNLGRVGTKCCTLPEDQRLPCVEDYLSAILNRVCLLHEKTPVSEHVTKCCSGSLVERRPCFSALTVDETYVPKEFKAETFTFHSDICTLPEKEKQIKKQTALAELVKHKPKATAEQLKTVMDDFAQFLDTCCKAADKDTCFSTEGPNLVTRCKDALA

Sequence of UniProt P02768 (P02768 25-609 limits assumed): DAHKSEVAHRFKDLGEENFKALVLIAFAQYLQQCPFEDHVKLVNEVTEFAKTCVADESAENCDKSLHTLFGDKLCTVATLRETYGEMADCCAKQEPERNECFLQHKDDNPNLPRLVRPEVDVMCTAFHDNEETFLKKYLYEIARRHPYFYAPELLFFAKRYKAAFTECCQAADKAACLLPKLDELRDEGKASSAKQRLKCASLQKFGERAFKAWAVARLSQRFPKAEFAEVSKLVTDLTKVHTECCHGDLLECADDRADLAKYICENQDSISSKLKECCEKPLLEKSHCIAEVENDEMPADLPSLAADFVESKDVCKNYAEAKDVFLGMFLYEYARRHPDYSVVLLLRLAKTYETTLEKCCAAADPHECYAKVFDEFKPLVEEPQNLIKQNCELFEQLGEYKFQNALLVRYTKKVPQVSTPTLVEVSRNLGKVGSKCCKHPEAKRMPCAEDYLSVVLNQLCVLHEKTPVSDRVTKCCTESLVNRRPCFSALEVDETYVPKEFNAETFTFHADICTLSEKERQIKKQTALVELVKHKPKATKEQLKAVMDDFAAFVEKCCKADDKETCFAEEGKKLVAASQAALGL

Substance SS1-ABD-dsFv-PE38 (LMB-209) has an Affinity [1] of 0.11 nM and an Affinity [2] of 0.16 nM.
